Source: patent US20180265882, “PLANTS WITH INCREASED SEED SIZE” (THE INSTITUTE OF GENETICS AND DEVELOPMENTAL BIOLOGY, published 2018)

T1: SOD7 (NGAL2, At3g11580) (Arabidopsis thaliana, UniProt Q8RYD3 SEQ:1-267)
T1 sequence: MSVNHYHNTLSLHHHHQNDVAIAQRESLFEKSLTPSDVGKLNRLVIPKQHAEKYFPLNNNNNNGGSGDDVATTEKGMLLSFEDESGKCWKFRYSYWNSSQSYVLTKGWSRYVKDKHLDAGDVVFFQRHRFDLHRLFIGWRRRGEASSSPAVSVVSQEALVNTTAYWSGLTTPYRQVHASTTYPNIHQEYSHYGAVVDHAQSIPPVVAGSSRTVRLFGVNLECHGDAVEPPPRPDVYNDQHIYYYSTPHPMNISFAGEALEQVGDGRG

B1: KLU promoter probe A (dsDNA)
DNA 1: TTCTACTACACTTGCTCTCTGTA
DNA 2: TACAGAGAGCAAGTGTAGTAGAA
B2: KLU promoter probe A-m (dsDNA)
DNA 1: TTCTACTAACACCTCTCTCTGTA
DNA 2: TACAGAGAGAGGTGTTAGTAGAA

How the values were obtained:
SOD7 (NGAL2, At3g11580) [1] = target: T1, SOD7 (NGAL2, At3g11580); test: EMSA; binding reduced by unlabeled probe A; details: tags: N-terminal MBP fusion (pMAL-C2), expressed in E. coli BL21(DE3), amylose purified; label: biotin
Protocol: (§1) (A) Expression dynamics of SOD7 and KLU in pER8-SOD7 transgenic plants treated with β-estradiol for 0, 4 and 8 hours. Means were calculated from three biological samples. Values are given as mean±SD. **, P<0.01, compared with the expression level of KLU and SOD7 at 0 hour, respectively (Student's t-test). (B) A 2-kb promoter region of KLU upstream of its ATG codon contains a CACTTG sequence. PF1 and PF2 represent PCR fragments used for ChIP-quantitative PCR analysis. A and A-m indicate the wild-type probe and the mutated probe used in the EMSA essay, respectively. […] Chromatin from 35S:GFP and 35S:GFP-SOD7 transgenic plants was immunoprecipitated by anti-GFP, and the enrichment of the fragments was determined by quantitative real-time PCR. The ACTIN7 promoter was used as a negative control. The fold enrichment was normalized to the ACTIN7 amplicon, set at 1. Means were calculated from three biological samples. Values are given as mean±SD. **, P<0.01, compared with 35S:GFP transgenic plants (Student's t-test). (D) Direct interaction between SOD7 and the KLU promoter determined by EMSA. […] The retarded DNA-protein complex was reduced by competition using the unlabeled probe A.
(§2) The coding sequence of SOD7 was cloned into the NdeI and BamHI sites of the pMAL-C2 vector to generate the construct MBP-SOD7. […]

SOD7 (NGAL2, At3g11580) [2] = target: T1, SOD7 (NGAL2, At3g11580); test: EMSA; mutated CACTTG, failed to bind; details: tags: N-terminal MBP fusion (pMAL-C2), expressed in E. coli BL21(DE3), amylose purified; label: biotin
Protocol: as §1, §2

| Binder | binding result (SOD7 (NGAL2, At3g11580) [1]) | binding result (SOD7 (NGAL2, At3g11580) [2]) |
| --- | --- | --- |
| B1 | binds | – |
| B2 | – | no binding |
